B1: TNXB (parent)
chain: LLQRELMVPGTRHSAVLRDLRSGT
B2: SNAP91 (parent)
chain: FAQPMMRPPFGAAAVPGTQLSPSP

Variants of: B1
Assay: protein stability index of a GFP-peptide fusion (GPS, HEK-293T) (PSI 1-6); higher = more stable
Details: c terminus: a fixed tail appended
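Further: lentivirally expressed fusions sorted by FACS into six bins by GFP to DsRed ratio, PSI derived from sequencing read proportions per bin multiplied by bin number.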

First: T11V
Second: T11H
The protein stability index of the first is lower: 2.24 for the first, 2.68 for the second.

First: T11Q
Second: R21G
The protein stability index of the first is higher: 2.88 for the first, 2.43 for the second.

First: A15P
Second: L1P
The protein stability index of the first is lower: 2.35 for the first, 2.53 for the second.

Compared with G10N, V16H is lower in protein stability index: 2.75 for the first, 2.46 for the second.

First: V16K
Second: V16E
The protein stability index of the first is lower: 2.48 for the first, 2.72 for the second.

First: L2H
Second: P9T
The protein stability index of the first is higher: 3.43 for the first, 2.03 for the second.

First: P9V
Second: M7I
The protein stability index of the first is lower: 2.38 for the first, 2.44 for the second.

First: M7S
Second: D19P
The protein stability index of the first is higher: 3.42 for the first, 2.69 for the second.

Compared with L6Y, R12E is lower in protein stability index: 2.63 for the first, 2.39 for the second.

Going from R12I to L20V, the protein stability index rises from 2.47 to 2.63.

First: R18Q
Second: R18P
The protein stability index of the first is lower: 2.48 for the first, 2.75 for the second.

Compared with R18C, R18G is higher in protein stability index: 2.42 for the first, 2.44 for the second.

Compared with R18F, S14I is lower in protein stability index: 2.02 for the first, 1.75 for the second.

Going from L17A to T24F, the protein stability index falls from 2.55 to 2.13.

Variant Q3H has a protein stability index of 2.49.

Variants of: B2
Assay: as above
Details: c terminus: a fixed tail appended

Compared with P22G, P22I is lower in protein stability index: 3.56 for the first, 2.75 for the second.

Compared with P22N, P22E is lower in protein stability index: 3.58 for the first, 2.71 for the second.

Going from P22C to P22V, the protein stability index rises from 2.67 to 3.08.

Compared with P22L, P22Q is higher in protein stability index: 3.22 for the first, 3.57 for the second.

First: P22Y
Second: P22F
The protein stability index of the first is higher: 3.49 for the first, 2.82 for the second.

First: P22S
Second: P22K
The protein stability index of the first is lower: 2.96 for the first, 3 for the second.

Going from P22W to A13T, the protein stability index rises from 2.65 to 3.36.

Going from A13Q to A13R, the protein stability index rises from 3.32 to 3.65.

First: A13V
Second: A13F
The protein stability index of the first is lower: 2.73 for the first, 3.13 for the second.

Going from A13I to A13N, the protein stability index rises from 2.54 to 3.46.

First: A13H
Second: A13L
The protein stability index of the first is higher: 3.13 for the first, 2.63 for the second.

Compared with A13M, A13K is higher in protein stability index: 2.79 for the first, 3.13 for the second.

Compared with A13Y, P4N is lower in protein stability index: 2.75 for the first, 2.36 for the second.

Going from P4C to P4T, the protein stability index rises from 2.48 to 2.53.

First: P4F
Second: P4R
The protein stability index of the first is lower: 1.44 for the first, 2.54 for the second.

Going from P4H to P4D, the protein stability index falls from 2.75 to 2.7.

Going from P4Q to P4W, the protein stability index falls from 2.02 to 1.83.

Compared with P4A, P4V is higher in protein stability index: 2.05 for the first, 2.33 for the second.

Compared with P4M, M6P is higher in protein stability index: 1.61 for the first, 3.62 for the second.

Compared with M6A, M6V is higher in protein stability index: 2.89 for the first, 3.87 for the second.

First: M6R
Second: M6C
The protein stability index of the first is higher: 3.1 for the first, 2.76 for the second.

Compared with M6E, M6G is lower in protein stability index: 3.6 for the first, 3.01 for the second.

First: M6H
Second: M6D
The protein stability index of the first is higher: 4.01 for the first, 3.46 for the second.

First: M6Y
Second: M6F
The protein stability index of the first is lower: 2.88 for the first, 3.14 for the second.

First: M6W
Second: M6Q
The protein stability index of the first is lower: 2.61 for the first, 3.9 for the second.

Going from S23R to S23F, the protein stability index falls from 4.14 to 2.75.

First: S23W
Second: S23V
The protein stability index of the first is lower: 2.03 for the first, 3.19 for the second.

Going from S23M to S23Q, the protein stability index rises from 2.36 to 3.

Compared with S23G, S23E is higher in protein stability index: 3.05 for the first, 3.32 for the second.

Going from S23K to M5D, the protein stability index rises from 3.21 to 3.52.

Compared with M5I, M5G is higher in protein stability index: 2.59 for the first, 2.77 for the second.

First: M5Y
Second: M5V
The protein stability index of the first is lower: 2.64 for the first, 3.01 for the second.

Going from M5R to M5C, the protein stability index falls from 4.15 to 2.68.

Going from M5A to M5L, the protein stability index falls from 3.49 to 3.4.

Going from M5K to M5E, the protein stability index rises from 2.61 to 3.61.

Going from V15W to V15M, the protein stability index rises from 2.52 to 3.01.

Compared with V15F, V15R is higher in protein stability index: 2.78 for the first, 3.31 for the second.

Compared with V15E, V15S is higher in protein stability index: 2.98 for the first, 3.28 for the second.

Compared with V15L, V15D is lower in protein stability index: 3.08 for the first, 2.73 for the second.

Compared with V15Y, V15K is higher in protein stability index: 2.83 for the first, 2.92 for the second.

Compared with V15C, V15Q is higher in protein stability index: 3.21 for the first, 3.42 for the second.

Going from A12T to A12V, the protein stability index falls from 2.91 to 2.55.

Going from A12G to A12H, the protein stability index falls from 3.5 to 2.96.

First: A12C
Second: A12E
The protein stability index of the first is lower: 2.46 for the first, 3.39 for the second.

Going from A12L to A12D, the protein stability index rises from 2.42 to 3.82.

Going from A12I to A12K, the protein stability index rises from 2.58 to 3.16.

First: A12Q
Second: A12P
The protein stability index of the first is higher: 3.62 for the first, 2.7 for the second.

Compared with A12S, A2L is lower in protein stability index: 2.91 for the first, 2.62 for the second.

Going from A2K to A2H, the protein stability index falls from 3.84 to 2.27.

Going from A2I to A2G, the protein stability index rises from 1.94 to 3.52.

Compared with A2W, A2F is higher in protein stability index: 2.45 for the first, 2.96 for the second.

Compared with A2S, A2P is lower in protein stability index: 3.81 for the first, 3.72 for the second.

First: A2R
Second: A2N
The protein stability index of the first is lower: 3.85 for the first, 4.59 for the second.

First: A2M
Second: A2V
The protein stability index of the first is higher: 3.62 for the first, 1.71 for the second.

Going from A2D to A2Q, the protein stability index falls from 4.69 to 3.33.

Compared with A2T, Q3R is higher in protein stability index: 3.09 for the first, 3.42 for the second.

Going from Q3W to Q3T, the protein stability index rises from 2.32 to 3.56.

First: Q3E
Second: Q3D
The protein stability index of the first is higher: 2.17 for the first, 2.12 for the second.

First: Q3I
Second: Q3L
The protein stability index of the first is lower: 2.55 for the first, 3.01 for the second.

Compared with Q3H, Q3F is higher in protein stability index: 2.86 for the first, 3.04 for the second.

First: Q3K
Second: Q3A
The protein stability index of the first is higher: 3.32 for the first, 3.3 for the second.

First: Q3M
Second: Q3C
The protein stability index of the first is higher: 2.93 for the first, 2.58 for the second.

First: F10T
Second: F10A
The protein stability index of the first is higher: 4.14 for the first, 3.98 for the second.

First: F10V
Second: F10S
The protein stability index of the first is higher: 4.7 for the first, 3.81 for the second.

First: F10Y
Second: F10E
The protein stability index of the first is lower: 2.83 for the first, 3.99 for the second.

First: F10P
Second: F10K
The protein stability index of the first is higher: 4.31 for the first, 3.83 for the second.

Going from F10G to F10H, the protein stability index falls from 4.2 to 3.58.

Compared with F10C, F10M is higher in protein stability index: 2.95 for the first, 4.12 for the second.

First: F10Q
Second: F10D
The protein stability index of the first is lower: 4.33 for the first, 4.52 for the second.

From the supplement of paper PMC10567573
